Reference: patent publication US20200353078A1

T1: Human IL-33 Flag®His (human)
T1 sequence: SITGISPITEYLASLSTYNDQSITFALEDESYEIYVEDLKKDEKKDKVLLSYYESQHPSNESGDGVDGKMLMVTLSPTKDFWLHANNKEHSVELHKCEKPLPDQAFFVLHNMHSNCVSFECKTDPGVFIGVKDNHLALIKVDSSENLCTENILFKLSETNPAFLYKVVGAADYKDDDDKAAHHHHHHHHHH

B1: IL33-02 (ligand)
chain: MHHHHHHHHHHAAGLNDIFEAQKIEWHEAAIEGRSITGISPITEYLASLSTYNDQSITFALEDESYEIYVEDLKKDEKKDKVLLSYYESQHPSNESGDGVDGKMLMVTLSPTKDFWLHANNKEHSVELHKSEKPLPDQAFFVLHNMHSNCVSFECKTDPGVFIGVKDNHLALIKVDSSENLCTENILFKLSET
B2: IL33-03 (ligand)
chain: MHHHHHHHHHHAAGLNDIFEAQKIEWHEAAIEGRSITGISPITEYLASLSTYNDQSITFALEDESYEIYVEDLKKDEKKDKVLLSYYESQHPSNESGDGVDGKMLMVTLSPTKDFWLHANNKEHSVELHKCEKPLPDQAFFVLHNMHSNSVSFECKTDPGVFIGVKDNHLALIKVDSSENLCTENILFKLSET
B3: IL33-04 (ligand)
chain: MHHHHHHHHHHAAGLNDIFEAQKIEWHEAAIEGRSITGISPITEYLASLSTYNDQSITFALEDESYEIYVEDLKKDEKKDKVLLSYYESQHPSNESGDGVDGKMLMVTLSPTKDFWLHANNKEHSVELHKCEKPLPDQAFFVLHNMHSNCVSFESKTDPGVFIGVKDNHLALIKVDSSENLCTENILFKLSET
B4: IL33-05 (ligand)
chain: MHHHHHHHHHHAAGLNDIFEAQKIEWHEAAIEGRSITGISPITEYLASLSTYNDQSITFALEDESYEIYVEDLKKDEKKDKVLLSYYESQHPSNESGDGVDGKMLMVTLSPTKDFWLHANNKEHSVELHKCEKPLPDQAFFVLHNMHSNCVSFECKTDPGVFIGVKDNHLALIKVDSSENLSTENILFKLSET
B5: IL33-06 (ligand)
chain: MHHHHHHHHHHAAGLNDIFEAQKIEWHEAAIEGRSITGISPITEYLASLSTYNDQSITFALEDESYEIYVEDLKKDEKKDKVLLSYYESQHPSNESGDGVDGKMLMVTLSPTKDFWLHANNKEHSVELHKSEKPLPDQAFFVLHNMHSNSVSFECKTDPGVFIGVKDNHLALIKVDSSENLCTENILFKLSET
B6: IL33-07 (ligand)
chain: MHHHHHHHHHHAAGLNDIFEAQKIEWHEAAIEGRSITGISPITEYLASLSTYNDQSITFALEDESYEIYVEDLKKDEKKDKVLLSYYESQHPSNESGDGVDGKMLMVTLSPTKDFWLHANNKEHSVELHKCEKPLPDQAFFVLHNMHSNCVSFESKTDPGVFIGVKDNHLALIKVDSSENLSTENILFKLSET
B7: IL33-08 (ligand)
chain: MHHHHHHHHHHAAGLNDIFEAQKIEWHEAAIEGRSITGISPITEYLASLSTYNDQSITFALEDESYEIYVEDLKKDEKKDKVLLSYYESQHPSNESGDGVDGKMLMVTLSPTKDFWLHANNKEHSVELHKSEKPLPDQAFFVLHNMHSNCVSFESKTDPGVFIGVKDNHLALIKVDSSENLCTENILFKLSET
B8: IL33-09 (ligand)
chain: MHHHHHHHHHHAAGLNDIFEAQKIEWHEAAIEGRSITGISPITEYLASLSTYNDQSITFALEDESYEIYVEDLKKDEKKDKVLLSYYESQHPSNESGDGVDGKMLMVTLSPTKDFWLHANNKEHSVELHKCEKPLPDQAFFVLHNMHSNSVSFECKTDPGVFIGVKDNHLALIKVDSSENLSTENILFKLSET
B9: IL33-10 (ligand)
chain: MHHHHHHHHHHAAGLNDIFEAQKIEWHEAAIEGRSITGISPITEYLASLSTYNDQSITFALEDESYEIYVEDLKKDEKKDKVLLSYYESQHPSNESGDGVDGKMLMVTLSPTKDFWLHANNKEHSVELHKCEKPLPDQAFFVLHNMHSNSVSFESKTDPGVFIGVKDNHLALIKVDSSENLCTENILFKLSET
B10: IL33-12 (ligand)
chain: MHHHHHHHHHHAAGLNDIFEAQKIEWHEAAIEGRSITGISPITEYLASLSTYNDQSITFALEDESYEIYVEDLKKDEKKDKVLLSYYESQHPSNESGDGVDGKMLMVTLSPTKDFWLHANNKEHSVELHKSEKPLPDQAFFVLHNMHSNSVSFESKTDPGVFIGVKDNHLALIKVDSSENLCTENILFKLSET
B11: IL33-13 (ligand)
chain: MHHHHHHHHHHAAGLNDIFEAQKIEWHEAAIEGRSITGISPITEYLASLSTYNDQSITFALEDESYEIYVEDLKKDEKKDKVLLSYYESQHPSNESGDGVDGKMLMVTLSPTKDFWLHANNKEHSVELHKSEKPLPDQAFFVLHNMHSNSVSFECKTDPGVFIGVKDNHLALIKVDSSENLSTENILFKLSET
B12: IL33-14 (ligand)
chain: MHHHHHHHHHHAAGLNDIFEAQKIEWHEAAIEGRSITGISPITEYLASLSTYNDQSITFALEDESYEIYVEDLKKDEKKDKVLLSYYESQHPSNESGDGVDGKMLMVTLSPTKDFWLHANNKEHSVELHKSEKPLPDQAFFVLHNMHSNCVSFESKTDPGVFIGVKDNHLALIKVDSSENLSTENILFKLSET
B13: IL33-15 (ligand)
chain: MHHHHHHHHHHAAGLNDIFEAQKIEWHEAAIEGRSITGISPITEYLASLSTYNDQSITFALEDESYEIYVEDLKKDEKKDKVLLSYYESQHPSNESGDGVDGKMLMVTLSPTKDFWLHANNKEHSVELHKCEKPLPDQAFFVLHNMHSNSVSFESKTDPGVFIGVKDNHLALIKVDSSENLSTENILFKLSET
B14: IL33-16 (ligand)
chain: MHHHHHHHHHHAAGLNDIFEAQKIEWHEAAIEGRSITGISPITEYLASLSTYNDQSITFALEDESYEIYVEDLKKDEKKDKVLLSYYESQHPSNESGDGVDGKMLMVTLSPTKDFWLHANNKEHSVELHKSEKPLPDQAFFVLHNMHSNSVSFESKTDPGVFIGVKDNHLALIKVDSSENLSTENILFKLSET
B15: IL330020 scFv (scFv, part only; not given: linker, domain order and tags, V domains shown, not shown: another chain or arm of the molecule; small tags and cut ends)
VH: QVQLVQSGAEVKKPGASVKVSCKASGYTFTSYGISWVRQAPGQGLEWMGWISDYQGYTKYAEKFQGRVTMTTDTSTNTAYMELRSLRSDDTAVYYCARLYSSGWIRQYHFDYWGRGTLVTVSS
VL: SYELTQPPSVSVSPGQTASITCSGDNLKDKYVSWYQQKPGQAPVLVLYQDRKRPSGIPERFSGSNSGNTATLTISGTQAMDEADYYCQAWDSGTAFGGGTKVTVL
B16: IL330259 scFv (scFv, part only; not given: linker, domain order and tags, V domains shown, not shown: another chain or arm of the molecule; small tags and cut ends)
VH: EVQLLESGGGLVQPGGSLRLSCAASGFTFSSYAMSWVRQAPGKGLEWVSASTPWQGSTYYADSVKGRFTISRDNSKNTLYLQMNSLRAEDTAVYYCVRVVAGYFDSWGRGTLVTVSS
VL: SYVLTQPPSVSVSPGQTARITCSGDALPKQYAHWYQQKPGQAPALVIYKDTERPSGIPERFSGSSSGTTVTLTISGVQAEDEADYYCQSADSSGASRVFGGGTKVTVL

The binders below were run against ST2 on human umbilical vein endothelial cells (human) (UniProt Q01638) (assay: cell-based or functional assay).
ST2 on human umbilical vein endothelial cells (human), sequence (Q01638 19-556): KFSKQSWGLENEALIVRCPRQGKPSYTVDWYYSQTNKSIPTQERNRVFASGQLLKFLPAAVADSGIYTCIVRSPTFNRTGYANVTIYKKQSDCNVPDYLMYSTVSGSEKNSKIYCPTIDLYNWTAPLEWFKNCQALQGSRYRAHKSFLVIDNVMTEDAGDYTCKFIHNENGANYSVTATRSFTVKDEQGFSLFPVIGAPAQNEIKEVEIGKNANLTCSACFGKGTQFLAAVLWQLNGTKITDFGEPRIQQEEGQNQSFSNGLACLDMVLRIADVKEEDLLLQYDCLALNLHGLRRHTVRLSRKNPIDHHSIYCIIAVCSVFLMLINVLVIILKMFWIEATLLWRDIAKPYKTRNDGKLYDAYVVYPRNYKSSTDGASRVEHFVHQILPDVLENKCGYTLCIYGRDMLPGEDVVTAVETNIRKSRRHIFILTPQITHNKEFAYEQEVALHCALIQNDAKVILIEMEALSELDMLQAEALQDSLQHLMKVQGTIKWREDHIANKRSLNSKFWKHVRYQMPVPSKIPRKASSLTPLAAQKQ
B1 was tested, and the IC50 (nM) Untreated, HUVEC NFkB translocation assay was 0.19 nM.
In the case of B2, the IC50 (nM) Untreated, HUVEC NFkB translocation assay is reported as 0.16 nM.
In the case of B3, the IC50 (nM) Untreated, HUVEC NFkB translocation assay is reported as 0.17 nM.
Binder B4 has an IC50 (nM) Untreated, HUVEC NFkB translocation assay of 0.1 nM.
With B5 the IC50 (nM) Untreated, HUVEC NFkB translocation assay was 0.28 nM.
With B6 the IC50 (nM) Untreated, HUVEC NFkB translocation assay was 0.22 nM.
B7 gave an IC50 (nM) Untreated, HUVEC NFkB translocation assay of 0.21 nM.
For B8, the IC50 (nM) Untreated, HUVEC NFkB translocation assay was 0.2 nM.
For B9, the IC50 (nM) Untreated, HUVEC NFkB translocation assay was 0.61 nM.
B10 showed an IC50 (nM) Untreated, HUVEC NFkB translocation assay of 0.39 nM.
For B11, the IC50 (nM) Untreated, HUVEC NFkB translocation assay was 0.08 nM.
B12 gave an IC50 (nM) Untreated, HUVEC NFkB translocation assay of 0.14 nM.
B13 gave an IC50 (nM) Untreated, HUVEC NFkB translocation assay of 0.12 nM.
Work on B14 yielded an IC50 (nM) Untreated, HUVEC NFkB translocation assay of 0.17 nM.

The binders below were run against T1, Human IL-33 Flag®His (human) (assay: HTRF competition: purified scFv titrated against human ST2-Fc for FLAG-His human IL-33).
In the case of B15, the IC50 (read off the curve) is reported as 100 nM.

These binders were tested against Human IL-33 (Axxora/Adipogen AG-40B-0038) (human) (UniProt O95760) (assay: HTRF epitope competition: purified scFv against IL330101 IgG for biotinylated human IL-33).
With B16 the IC50 (read off the curve) was 7 nM.
